Assays:
B lymphocytes = test: Apoptosis by FACS in peripheral blood B cells; type: cell-based, human; conditions: Apo-2 ligand 3 μg/ml, 3 days, mean ±SE
Procedure: (§1) Peripheral blood mononuclear cells (“PBMC&”) were isolated from the blood of human donors by Ficoll density gradient centrifugation using Lymphocyte Separation Medium (LSM®, Organon Teknika). An isolated population of T cells was prepared from the PBMC by removal of B cells through surface Ig binding to an anti-Ig column and removal of monocytes through Fc receptor binding to an Ig column (R & D Systems). An isolated population of B cells was prepared from the PBMC by complement-mediatedelimination of T cells reacted with the anti-CD3 antibody produced by the OKT3 myeloma (ATCC, CRL 8001) and of monocytes reacted with a monocyte-specific antibody produced by the 4F2C13 hybridoma (ATCC, HB 22). Additional monocyte removal was accomplished by adherence to plastic.
The freshly isolated peripheral blood B or T cells (1×10^6 cells/well) were cultured for 3 days in the presence of a media control or Apo-2 ligand (3 μg/ml, prepared as described in Example 3). […] Apoptosis was determined using FACS analysis essentially as described above in Example 4. […] The results are shown in Table 2 below, representing means ±SE of independent experiments [B lymphocytes—9 experiments; T lymphocytes—8 experiments; T lymphocytes plus IL-2-5 experiments], in which 50,000 cells were analyzed per data point. […]

T lymphocytes = test: Apoptosis by FACS in peripheral blood T cells; type: cell-based, human; conditions: Apo-2 ligand 3 μg/ml, 3 days, mean ±SE
Procedure: as §1
The freshly isolated peripheral blood B or T cells (1×10^6 cells/well) were cultured for 3 days in the presence of a media control or Apo-2 ligand (3 μg/ml, prepared as described in Example 3). For activation, B cells were treated simultaneously with lipopolysaccharide (“LPS”, 1 μg/ml), and T cells were treated with phorbol myristate acetate (“PMA”, 10 ng/ml) plus ionomycin (1 μg/ml) (Sigma). For interleukin-2 (“IL-2”) pretreatment, T cells were cultured for 3-5 days in the presence of IL-2 (50 U/ml) (Genzyme) before exposure to Apo-2 ligand. Apoptosis was determined using FACS analysis essentially as described above in Example 4. However, B cells were gated by anti-CD19/CD20 antibodies (Jackson Immunoresearch), and T cells were gated by anti-CD4/CD8 antibodies (Jackson lmmunoresearch). The results are shown in Table 2 below, representing means ±SE of independent experiments [B lymphocytes—9 experiments; T lymphocytes—8 experiments; T lymphocytes plus IL-2-5 experiments], in which 50,000 cells were analyzed per data point. Statistical analysis was performed using the student t-test. In Table 2, a=p<0.05 and b=p<0.02 relative respective control.

[1] = Examination of infused animals for gross toxicity; type: in vivo, nude mice; conditions: E. coli-expressed Apo-2 ligand 10 mg/kg each day by mini-pump; Day 3
Procedure: In the experiment, the nude mice were injected subcutaneously with HCT116 human colon carcinoma cells (ATCC CCL 247) (1×10^6 cells) on each side of the animal. The tumors were then allowed to grow to reach approximately 1 cm diameter (approximately 10 days). On Day 0, the tumor volume was measured with calipers. Volume was calculated as π/6×ab^2, where a=length and b=width. Then osmotic mini-pumps (available from Alza Corp., Model 1003) were implanted intraperitoncally into each animal. The mini-pumps were loaded with either (1) control vehicle (20 mM Tris pH 7.5, 8% Trehalose. 0.01% Tween-20) or (2) Apo-2 ligand. Five animals in each group received either the control vehicle or Apo-2 ligand. The mini-pumps were calibrated to deliver each day 10 mg/kg Apo-2 ligand (10 mg/ml×2 μl/hour) or 2 μl/hour control vehicle.
On Day 3, the tumor volume was again measured, and the animals were sacrificed. […] There was no change in tumor volume in the vehicle group, but a marked reduction in tumor size occurred in mice infused with the Apo-2L. The treatment with the Apo-2L shrunk the tumors by about 50% over 3 days.

ME-180 = test: Cell viability by crystal violet staining; type: cell-based, human
Procedure: (§2) The following human tumor cell lines were assayed: A549 (lung carcinoma, ATCC CCL 185); HCT116 (colon carcinoma, ATCC CCL 247); SW480 (colon adenocarcinoma, ATCC CCL 228); MDA231 (breast adenocarcinoma, ATCC HTB 26); HeLa (cervical carcinoma, ATCC CCL 22); ME-180 (cervical carcinoma, ATCC HTB 33); T24 (bladder carcinoma. ATCC HTB 4); SK-N-AS (neuroblastoma, White et al., Proc. Natl. Acad. Sci., 92:5520-5524 (1995)). The cells were plated at 2.5×10^5 cells/ml in 96 well plates and incubated overnight. The cells were cultured in the presence of 2-fold dilutions of Apo-2 ligand (ranging from 100 ng/ml to 0.01 ng/ml). In some of the cultures, a chemotherapeuticagent was also added for 24 hours-cyclohexamide (“CHX”) (50 μg/ml; Sigma Chemicals), Doxorubicin (10-100 μg/ml; Pharmacia), or 5-FU (6 mg/ml; Roche). After 24 hours of incubation, the cells were stained with 0.5% crystal-violetin 20% methanol. Cell viability was determined by eluting the dye from the stained cells with 0.1M sodium citrate (0.1M citric acid in 50% methanol), and measuring absorbance at 540 nm.

T24 = test: Cell viability by crystal violet staining; type: cell-based, human
Procedure: as §2

HeLa = test: Cell viability by crystal violet staining; type: cell-based, human
Procedure: (§3) The following human tumor cell lines were assayed: A549 (lung carcinoma, ATCC CCL 185); HCT116 (colon carcinoma, ATCC CCL 247); SW480 (colon adenocarcinoma, ATCC CCL 228); MDA231 (breast adenocarcinoma, ATCC HTB 26); HeLa (cervical carcinoma, ATCC CCL 22); ME-180 (cervical carcinoma, ATCC HTB 33); T24 (bladder carcinoma. ATCC HTB 4); SK-N-AS (neuroblastoma, White et al., Proc. Natl. Acad. Sci., 92:5520-5524 (1995)). The cells were plated at 2.5×10^5 cells/ml in 96 well plates and incubated overnight. The cells were cultured in the presence of 2-fold dilutions of Apo-2 ligand (ranging from 100 ng/ml to 0.01 ng/ml). In some of the cultures, a chemotherapeuticagent was also added for 24 hours-cyclohexamide (“CHX”) (50 μg/ml; Sigma Chemicals), Doxorubicin (10-100 μg/ml; Pharmacia), or 5-FU (6 mg/ml; Roche).
(§4) After 24 hours of incubation, the cells were stained with 0.5% crystal-violetin 20% methanol. Cell viability was determined by eluting the dye from the stained cells with 0.1M sodium citrate (0.1M citric acid in 50% methanol), and measuring absorbance at 540 nm.

SK-N-AS = test: Cell viability by crystal violet staining; type: cell-based, human; conditions: SK-N-AS neuroblastoma, p53 ?; 24 h
Procedure: as §3, §4

B1: Apo-2L: purified soluble His10-tagged human Apo-2 ligand, residues 114-281, from baculovirus-infected Sf9 cells (Example 3); used in Examples 4-14 (protein)
chain: MGHHHHHHHHHHSSGHIDDDDKHMVRERGPQRVAAHITGTRGRSNTLSSPNSKNEKALGRKINSWESSRSGHSFLSNLHLRNGELVIHEKGFYYIYSQTYFRFQEEIKENTKNDKQMVQYIYKYTSYPDPILLMKSARNSCWSKDAEYGLYSIYQGGIFELKENDRIFVSVTNEHLIDMDHEASFFGAFLVG
% apoptolic cells (B lymphocytes; LPS 1 μg/ml, control 44.8 ± 2.8, a=p<0.05): 55.9 ± 3.2^a % | % apoptolic cells (B lymphocytes; treatment none, control 40.1 ± 4.1, a=p<0.05): 53.2 ± 3.3^a % | % apoptolic cells (T lymphocytes; IL-2 pretreatment (50 U/ml, 3-5 days), control 13.7 ± 1.2, b=p<0.02): 34.5 ± 4.8^b % | % apoptolic cells (T lymphocytes; PMA/ionomycin, control 40.3 ± 4.4, a=p<0.05): 54.2 ± 3.3^a % | % apoptolic cells (T lymphocytes; treatment none, control 6.3 ± 0.6): 8.2 ± 0.8% | gross evidence of toxicity [1]: did not reveal any gross evidence of toxicity | Apo-2L sensitivity ENHANCED BY Dox (ME-180; ME180, Doxorubicin 10-100 μg/ml, 24 hours): yes | Apo-2L sensitivity ENHANCED BY CHX (ME-180; ME180, cyclohexamide 50 μg/ml, 24 hours): yes | Apo-2L SENSITIVITY (ME-180; ME180 cervical carcinoma, p53 WT, 24 h): ++ (>70% death after 24 h with 100 ng/ml Apo-2L) | Apo-2L sensitivity ENHANCED BY Dox (T24; T24, Doxorubicin 10-100 μg/ml, 24 hours): yes | Apo-2L sensitivity ENHANCED BY CHX (T24; T24, cyclohexamide 50 μg/ml, 24 hours): yes | Apo-2L SENSITIVITY (T24; T24 bladder carcinoma, p53 mut, 24 h): +++ (>70% death after 24 h with 10 ng/ml Apo-2L) | Apo-2L SENSITIVITY (HeLa; HeLa cervical carcinoma, p53 mut, 24 h): + (>35% death after 24 h with 100 ng/ml Apo-2) | Apo-2L sensitivity ENHANCED BY CHX (HeLa; HeLa, cyclohexamide 50 μg/ml, 24 hours): yes | Apo-2L SENSITIVITY (SK-N-AS): + (>35% death after 24 h with 100 ng/ml Apo-2)

Source: patent US6740739B1, “Substitutional variants of APO-2 ligand” (Genentech, Inc., priority 1998, dated 2004)
